B1: EPB41L3 (parent)
chain: FRFAPNHTKELEDKVIELHKSHRG
B2: TRIM43 (parent)
chain: NRFRVEISFHFEVTNHNIRLFEDV

Variants of: B1
Experiment: protein stability index of a GFP-peptide fusion (GPS, HEK-293T) (PSI 1-6); higher = more stable
Settings: c terminus: a fixed tail appended
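Note: lentivirally expressed fusions sorted by FACS into six bins by GFP to DsRed ratio, PSI derived from sequencing read proportions per bin multiplied by bin number.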

First: FRFAPNHTKELEDKVIELHKSHAG
Second: FRFAPNHTKELEDKVIELHKSHFG
The protein stability index of the first is higher: 2.07 for the first, 1.5 for the second.

Compared with FRFAPNHTKELEDKVIELHKSHNG, FRFAPNHTKELEDKVIELHKSHWG is lower in protein stability index: 2 for the first, 1.54 for the second.

Going from FRFAPNHTKELEDKVIELHKSHQG to FRFAPNHTKELEDKVIELHKSHTG, the protein stability index falls from 2.87 to 2.07.

Compared with FRFAPNHTKELEDKVIELHKSHCG, FRFAPNHTKELEDKVIELHKSHPG is lower in protein stability index: 2.4 for the first, 1.93 for the second.

Compared with FRFAPNHTKELEDKVIELHKSHGG, FRFAPNHTKELEDKVIELHKSHIG is lower in protein stability index: 3.6 for the first, 1.72 for the second.

Compared with FRFAPNHTKELEDKVIELHKSHVG, FRFAPNHTKELEDKVIELHKSHDG is higher in protein stability index: 1.83 for the first, 2.84 for the second.

First: FRFAPNHTKELEDKVIELHKSHLG
Second: FRFAPNHTKELEDKVIELHKSHMG
The protein stability index of the first is higher: 1.92 for the first, 1.73 for the second.

Compared with FRFAPNHTKELEDKVIELHKSHYG, FRFAPNHTKELEDKVIELHKSHHG is lower in protein stability index: 2.78 for the first, 1.92 for the second.

Compared with FRFAPNHTKELEDKVIELHKSHKG, FRFAPNHTKELEDKVIELHKSHSG is lower in protein stability index: 2.37 for the first, 1.85 for the second.

First: FRFAPNHTKELEDKVIELHKSHEG
Second: FRFAPNHTKELEDKVIELHKSDRG
The protein stability index of the first is higher: 3.15 for the first, 2.48 for the second.

Compared with FRFAPNHTKELEDKVIELHKSFRG, FRFAPNHTKELEDKVIELHKSYRG is higher in protein stability index: 1.92 for the first, 2.96 for the second.

Going from FRFAPNHTKELEDKVIELHKSGRG to FRFAPNHTKELEDKVIELHKSCRG, the protein stability index rises from 1.91 to 1.95.

Compared with FRFAPNHTKELEDKVIELHKSSRG, FRFAPNHTKELEDKVIELHKSMRG is lower in protein stability index: 2.4 for the first, 1.55 for the second.

First: FRFAPNHTKELEDKVIELHKSARG
Second: FRFAPNHTKELEDKVIELHKSVRG
The protein stability index of the first is higher: 1.98 for the first, 1.67 for the second.

Compared with FRFAPNHTKELEDKVIELHKSIRG, FRFAPNHTKELEDKVIELHKSLRG is lower in protein stability index: 1.68 for the first, 1.63 for the second.

First: FRFAPNHTKELEDKVIELHKSQRG
Second: FRFAPNHTKELEDKVIELHKSERG
The protein stability index of the first is lower: 2.01 for the first, 2.52 for the second.

Compared with FRFAPNHTKELEDKVIELHKSWRG, FRFAPNHTKELEDKVIELHKSPRG is higher in protein stability index: 1.65 for the first, 2.17 for the second.

First: FRFAPNHTKELEDKVIELHKSRRG
Second: FRFAPNHTKELEDKVIELHKSNRG
The protein stability index of the first is lower: 1.68 for the first, 2.34 for the second.

Going from FRFAPNHTKELEDKVIELHKSKRG to FRFAPNHTKELEDKVIELHKSTRG, the protein stability index rises from 1.4 to 1.76.

Going from FRFAPNHTKELEDKVIELHKYHRG to FRFAPNHTKELEDKVIELHKVHRG, the protein stability index falls from 2.4 to 2.2.

First: FRFAPNHTKELEDKVIELHKWHRG
Second: FRFAPNHTKELEDKVIELHKSHRQ
The protein stability index of the first is lower: 1.41 for the first, 2.74 for the second.

Compared with FRFAPNHTKELEDKVIELHKSHRP, FRFAPNHTKELEDKVIELHKSHRY is lower in protein stability index: 2.19 for the first, 1.56 for the second.

Compared with FRFAPNHTKELEDKVIELHKSHRV, FRFAPNHTKELEDKVIELHKSHRH is higher in protein stability index: 1.74 for the first, 1.97 for the second.

Compared with FRFAPNHTKELEDKVIELHKSHRD, FRFAPNHTKELEDKVIELHKSHRC is lower in protein stability index: 1.75 for the first, 1.36 for the second.

Going from FRFAPNHTKELEDKVIELHKSHRT to FRFAPNHTKELEDKVIELHKSHRI, the protein stability index rises from 1.73 to 2.04.

Compared with FRFAPNHTKELEDKVIELHKSHRK, FRFAPNHTKELEDKVIELHKSHRS is lower in protein stability index: 2.06 for the first, 1.94 for the second.

Compared with FRFAPNHTKELEDKVIELHKSHRW, FRFAPNHTKELEDKVIELHKSHRR is higher in protein stability index: 1.84 for the first, 2.05 for the second.

Compared with FRFAPNHTKELEDKVIELHKSHRM, FRFAPNHTKELEDKVIELHKSHRN is lower in protein stability index: 2.53 for the first, 2.45 for the second.

Compared with FRFAPNHTKELEDKVIELHKSHRL, FRFAPNHTKELEDKVIELHKSHRF is higher in protein stability index: 2.02 for the first, 2.31 for the second.

Compared with FRFAPNHTKELEDKVIELHKSHRE, FRFAPNHTKELEDKVIELHKSHRA is lower in protein stability index: 2.34 for the first, 1.93 for the second.

Variants of: B2
Experiment: as above
Settings: c terminus: a fixed tail appended

First: NRFRVEILFHFEVTNHNIRLFEDV
Second: NRFRVEIMFHFEVTNHNIRLFEDV
The protein stability index of the first is higher: 3.72 for the first, 2.39 for the second.

First: NRFRVEIPFHFEVTNHNIRLFEDV
Second: NPFRVEISFHFEVTNHNIRLFEDV
The protein stability index of the first is lower: 2.36 for the first, 2.38 for the second.

First: NWFRVEISFHFEVTNHNIRLFEDV
Second: NYFRVEISFHFEVTNHNIRLFEDV
The protein stability index of the first is lower: 2.21 for the first, 2.89 for the second.

First: NIFRVEISFHFEVTNHNIRLFEDV
Second: QRFRVEISFHFEVTNHNIRLFEDV
The protein stability index of the first is higher: 3.39 for the first, 3.07 for the second.

First: CRFRVEISFHFEVTNHNIRLFEDV
Second: TRFRVEISFHFEVTNHNIRLFEDV
The protein stability index of the first is higher: 3.11 for the first, 1.62 for the second.

First: LRFRVEISFHFEVTNHNIRLFEDV
Second: NRFRVEISFHFEVTNHNTRLFEDV
The protein stability index of the first is higher: 3.45 for the first, 2.09 for the second.

First: NRFRVEISFHFEVTNHNWRLFEDV
Second: NRFRVEISFHFEVTNHNERLFEDV
The protein stability index of the first is higher: 3.01 for the first, 2.9 for the second.

Going from NRFRVEISFHFEVTNHNGRLFEDV to NRFRVEISFHFEVTNHNPRLFEDV, the protein stability index rises from 2.43 to 3.07.

Compared with NRFRVEISFHFEVTNHNCRLFEDV, NRFRVEISFHFEVTNHNDRLFEDV is lower in protein stability index: 4.6 for the first, 1.3 for the second.

Going from NRFRVEISFHFEVTNHNKRLFEDV to NRFRVEISFPFEVTNHNIRLFEDV, the protein stability index rises from 1.47 to 3.64.

Going from NRFRVEISFSFEVTNHNIRLFEDV to NRFRVEISFQFEVTNHNIRLFEDV, the protein stability index rises from 3.4 to 4.08.

First: NRFRVEISFHFEVTNHNIRLFQDV
Second: NRFRVEISFHFEVTNHNIRLFDDV
The protein stability index of the first is lower: 2.31 for the first, 2.4 for the second.

First: NRFRVEISFHFEVTNHNIRLFHDV
Second: NRFRVEISFHFEVTNHNIRLFLDV
The protein stability index of the first is higher: 3.18 for the first, 2.29 for the second.

Compared with NRFRVEISFHFEVTNHNIRLFTDV, NRFRVEISFHFEVTNHNIRLFKDV is lower in protein stability index: 2.66 for the first, 2.02 for the second.

First: NRFRVHISFHFEVTNHNIRLFEDV
Second: NRFRVLISFHFEVTNHNIRLFEDV
The protein stability index of the first is higher: 4.48 for the first, 2.03 for the second.

Going from NRFRVMISFHFEVTNHNIRLFEDV to NRFRVTISFHFEVTNHNIRLFEDV, the protein stability index rises from 2.64 to 4.38.

Going from NRFRVKISFHFEVTNHNIRLFEDV to NRFRVAISFHFEVTNHNIRLFEDV, the protein stability index falls from 3.25 to 2.86.

— the supplement of paper PMC10567573
